The supplement of paper PMC10567573

B1: C8orf76 (parent)
chain: KLAEAYLNLGPALSAALASSQKQH

Variants of: B1
Test: protein stability index of a GFP-peptide fusion (GPS, HEK-293T) (PSI 1-6); higher = more stable
Settings: c terminus: a fixed tail appended
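Further: lentivirally expressed fusions sorted by FACS into six bins by GFP to DsRed ratio, PSI derived from sequencing read proportions per bin multiplied by bin number.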

In order of falling protein stability index:
1. KLAEAYLNLGPALSAALASSQEQH [K22E]  4.71
2. KLAEAYLNLGPALSAALASIQKQH [S20I]  4.43
3. KLAEAYLNLGPALVAALASSQKQH [S14V]  4.08
4. KLAEAYLNLGPALFAALASSQKQH [S14F]  4.03
5. KLAEAYLNLGPALSAALASAQKQH [S20A]  3.74
6. KLAEAYLNLGRALSAALASSQKQH [P11R]  3.7
7. KLAEAYLNLGPALSAALASCQKQH [S20C]  3.5
8. KLAEAYLNLGPALSAALASHQKQH [S20H]  3.47
9. KLAEAYLNLGPALSAALMSSQKQH [A18M]  3.46
10. KLAEAYLNLGPALSAALASSQCQH [K22C]  3.44
11. KLAEAYLNLGPVLSAALASSQKQH [A12V]  3.4
12. KLAEAYLNLGSALSAALASSQKQH [P11S]  3.4
13. KLAEAYLNLGPALSAALASWQKQH [S20W]  3.33
14. KLAEAYLNLGPAESAALASSQKQH [L13E]  3.29
15. KLAEAYLNLGPALMAALASSQKQH [S14M]  3.24
16. KLAEAYLNLGPAISAALASSQKQH [L13I]  3.23
17. KLAEAYLNLGPALSAALASLQKQH [S20L]  3.21
18. KLAEAYLNLGPALSAALLSSQKQH [A18L]  3.18
19. KLAEAYLNLGPALSAALASVQKQH [S20V]  3.17
20. KLAEAYLNLGPADSAALASSQKQH [L13D]  3.15
21. KLAEAYLNLGPALSAALFSSQKQH [A18F]  3
22. KLAEAYLNLGPALQAALASSQKQH [S14Q]  2.93
23. KLAEAYLNLGPALSAALASSQAQH [K22A]  2.91
24. KLAEAYLNLGMALSAALASSQKQH [P11M]  2.9
25. KLAEAYLNLGPYLSAALASSQKQH [A12Y]  2.82
26. KLAEAYLNLGPAPSAALASSQKQH [L13P]  2.82
27. KLAEAYLNLGPACSAALASSQKQH [L13C]  2.77
28. KLAEAYLNLGPAQSAALASSQKQH [L13Q]  2.76
29. KLAEAYLNLGPALSAALHSSQKQH [A18H]  2.73
30. KLAEAYLNLGPFLSAALASSQKQH [A12F]  2.73
31. KLAEAYLNLGPALSAALRSSQKQH [A18R]  2.67
32. KLAEAYLNLGPATSAALASSQKQH [L13T]  2.65
33. KLAEAYLNLGPAGSAALASSQKQH [L13G]  2.65
34. KLAEAYLNLGPDLSAALASSQKQH [A12D]  2.61
35. KLAEAYLNLGPLLSAALASSQKQH [A12L]  2.59
36. KLAEAYLNLGPASSAALASSQKQH [L13S]  2.54
37. KLAEAYLNLGPMLSAALASSQKQH [A12M]  2.5
38. KLAEAYLNLGPALSAALASGQKQH [S20G]  2.46
39. KLAEAYLNLGPALSAALASMQKQH [S20M]  2.44
40. KLAEAYLNLGPALSAALISSQKQH [A18I]  2.4
41. KLAEAYLNLGPALSAALYSSQKQH [A18Y]  2.37
42. KLAEAYLNLGPALSAALVSSQKQH [A18V]  2.36
43. KLAEAYLNLGPAKSAALASSQKQH [L13K]  2.36
44. KLAEAYLNLGPSLSAALASSQKQH [A12S]  2.35
45. KLAEAYLNLGPALYAALASSQKQH [S14Y]  2.35
46. KLAEAYLNLGPKLSAALASSQKQH [A12K]  2.32
47. KLAEAYLNLGPANSAALASSQKQH [L13N]  2.31
48. KLAEAYLNLGPALSAALGSSQKQH [A18G]  2.29
49. KLAEAYLNLGPRLSAALASSQKQH [A12R]  2.29
50. KLAEAYLNLGQALSAALASSQKQH [P11Q]  2.28
51. KLAEAYLNLGPALSAALASNQKQH [S20N]  2.26
52. KLAEAYLNLGPILSAALASSQKQH [A12I]  2.25
53. KLAEAYLNLGPARSAALASSQKQH [L13R]  2.24
54. KLAEAYLNLGPALSAALASPQKQH [S20P]  2.23
55. KLAEAYLNLGPAHSAALASSQKQH [L13H]  2.23
56. KLAEAYLNLGPALSAALDSSQKQH [A18D]  2.22
57. KLAEAYLNLGPPLSAALASSQKQH [A12P]  2.2
58. KLAEAYLNLGPALSAALASYQKQH [S20Y]  2.2
59. KLAEAYLNLGPALHAALASSQKQH [S14H]  2.18
60. KLAEAYLNLGPHLSAALASSQKQH [A12H]  2.14
61. KLAEAYLNLGPAYSAALASSQKQH [L13Y]  2.14
62. KLAEAYLNLGPALSAALASRQKQH [S20R]  2.13
63. KLAEAYLNLGPALGAALASSQKQH [S14G]  2.12
64. KLAEAYLNLGPAWSAALASSQKQH [L13W]  2.06
65. KLAEAYLNLGPALDAALASSQKQH [S14D]  2.06
66. KLAEAYLNLGPALSAALPSSQKQH [A18P]  2.04
67. KLAEAYLNLGPAFSAALASSQKQH [L13F]  2.03
68. KLAEAYLNLGPALSAALKSSQKQH [A18K]  2.02
69. KLAEAYLNLGPALSAALSSSQKQH [A18S]  1.99
70. KLAEAYLNLGPAASAALASSQKQH [L13A]  1.99
71. KLAEAYLNLGPELSAALASSQKQH [A12E]  1.96
72. KLAEAYLNLGPALSAALESSQKQH [A18E]  1.95
73. KLAEAYLNLGPALSAALQSSQKQH [A18Q]  1.9
74. KLAEAYLNLGPALSAALASTQKQH [S20T]  1.9
75. KLAEAYLNLGPCLSAALASSQKQH [A12C]  1.82
76. KLAEAYLNLGPALPAALASSQKQH [S14P]  1.81
77. KLAEAYLNLGPAMSAALASSQKQH [L13M]  1.8
78. KLAEAYLNLGPQLSAALASSQKQH [A12Q]  1.73
79. KLAEAYLNLGPALSAALASSQDQH [K22D]  1.69
80. KLAEAYLNLGPNLSAALASSQKQH [A12N]  1.68
81. KLAEAYLNLGPALSAALCSSQKQH [A18C]  1.6
82. KLAEAYLNLGPGLSAALASSQKQH [A12G]  1.6
83. KLAEAYLNLGPALSAALASKQKQH [S20K]  1.6
84. KLAEAYLNLGPWLSAALASSQKQH [A12W]  1.59
85. KLAEAYLNLGPALSAALTSSQKQH [A18T]  1.52
86. KLAEAYLNLGPALSAALASDQKQH [S20D]  1.48
87. KLAEAYLNLGPAVSAALASSQKQH [L13V]  1.48
88. KLAEAYLNLGPALAAALASSQKQH [S14A]  1.47
89. KLAEAYLNLGPALSAALASEQKQH [S20E]  1.3
90. KLAEAYLNLGPALKAALASSQKQH [S14K]  1.3
91. KLAEAYLNLGPTLSAALASSQKQH [A12T]  1.26
92. KLAEAYLNLGYALSAALASSQKQH [P11Y]  1.26
93. KLAEAYLNLGPALEAALASSQKQH [S14E]  1.23
94. KLAEAYLNLGPALSAALNSSQKQH [A18N]  1.19
